Measured values: paper doi:10.1101/2021.03.29.437564 (bioRxiv, 2021)

Molecular target: the molecule itself
Assay: direct infusion mass spectrometry

B1: ParD antitoxin (PA0125) from Pseudomonas aeruginosa, wild type (natural protein)
chain: MSTVVSFRADDALVAALDELARATHRDRPYHLRQALAQYLERQQWQVAAIDEGLADANAGRLLEHIEIEKRWGLQ
stoichiometry N: 2
